# Laboratory results taken from the nanobody polyreactivity screen of Harvey et al. (2022).
# Experiment: yeast display, Sf9 membrane polyspecificity reagent, FACS + sequencing; frameworks hold sequencing errors
# In short: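 After 36–48 hours of galactose induction, yeast (Saccharomyces cerevisiae BJ5465) displaying a synthetic nanobody library were stained at 4 °C for 1 hour with 10% biotinylated, detergent-solubilized Sf9 membrane reagent. Streptavidin microbeads enriched the stained cells before FACS sorting into low and high (top ~1%) gates on anti-HA and streptavidin fluorescence. Each clone's polyreactivity label reflects its gate of origin.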
row,Sequence,polyreactivity (PSR sort gate)
1,QVQLVESGGGLVQAGGSLRLSCAASGSIFDEYAMGWYRQAPGKERELVAAITYSGGDTYYADSVKGRFTISRDNAKNTVYLQMNSLKPEDTAVYYCAVDTPLEYYHQQAYVAGEYWGQGTQVTVSS,low polyreactivity
2,QVQLVESGGCLVQAGGSLRLSCAASGNTIIRYAMGWYRQAPGKERELVAAISYSGGRTYYADSVKGRFTISRDNAKNTVYLQMNSLKPVDNAVYYCNAASRYGGDYWGQGTQVTVSS,high polyreactivity
3,QVQLVESGGDLVQAGGSLRLSCAASGITFRRYTMGWYRQAPGKERELVAAISSGGSTNYADSVKGRFTISRDNAKNTVYLQMNSLKPEDTAVYYCAATRRYIQYGYDYWGQGTQVTVSS,high polyreactivity
4,QVQLVESGGGLVQAGGSLRLSCAACGSIFKGNAMGWYRQAPGKERELVARISSGGSTYYADSVKGRFTISRDNAKNTVYLQMNSLKPEDTAVYYCAARVYTSYIRQYTYSYYYWGQGTQVTVSS,high polyreactivity
5,QVQLEESGGGLVQAGGSLRLSCAASGSILPKYDMGWSRQAPGKERELVAAITRTGGRTYYADSVKGRFTISRDYAKNTVYLQMNSLKPEDTAVYFCAVRGFFWSTRSYRIRSEYDYWGQGTQVTVSS,low polyreactivity
6,QVQLVESGGGLVQAGGSLRLSCAASGSTFLNYAMGWYRQAPWKERELVAAISGRGGRTYYADSVKGRFTISRDNATNTVYLQMNSLKPEDTAVYYCANKRRGGYLYRQELDYWGQGTQVTVSS,high polyreactivity
7,QVQLQESGGGLVQAGGGLRLSCAASGTISGPHVMGSSRQAPRKEREFLAAINVGANTYYADNVKGRFTISRDNAKNTVYLQMNSLKPEDTAVYYCAAVYYGDIGHEYWGQGTQVTVSC,low polyreactivity
8,QVQLLESGGGLVQAGGSLRLSCAASGFNFGVYAMGWYRQAPGKERELVAAITRSGGSTYYADSVKGRYTISRDNAKNSVYLQMNSLNPEDTAVYYCAARARDHYGYWGQGTQVSVSS,high polyreactivity
9,QDQHVESEVGLVQAGGSLRLSCAASGSTVYPYAKGWYRKAPGKERELDAAISSGGSTYYADSVKGRFTISRDNAKNTVYLQMNSLKPEDTAVYYCAADFYYAYYWGQGSQVTVSS,low polyreactivity
10,QVQLVESGGGLVQAGGSLRLRCAASGIFAFYAMGWYRQAPGKERELVAGIDDGGSTDYADSVKGRFTISRDNAKNTVYLQMNSLKPEDTAVYYCAATERLEVWSRPYVWVTLDYRGQGTQVTVSS,low polyreactivity
11,QVQLVESGGGLVQAGGSLRLSCAASGRTFVRYAMGWYRQAPGKERELVAAISRTGGTTYYADSVKGRFTISRDNAKNTVYLQMNSLKPEDTAVYYCNADPFYKYGYWGQGTQVTVSS,high polyreactivity
12,QVQLVESGGGLVQAGGSLRLSCAASGSIFQYYAMGWYRQAAGKERELVAAISGSGGRTYYADSVKGRFTISRDNAKNTVYLQMNSLKPEDTAVYYCNTVWWKQYNYWGQGTQVTVSS,high polyreactivity
13,QVQLVESGGGLVQAGGSLRLSCAASGRIFRAYAMGWYRQAPGKERELVAAITSGVSTNYADSVKGRFTISRDNAKNTVYLQMNSLKPEDTAVYYCAADIYVIYEYWGQGTQVTVSS,low polyreactivity
14,QVQHVESGRGLVQAGGSLRLSCAGSGFIFYKYAMGWYRQAPGKERELVAAITRGGSTNYADSVKGRFTISRDTAKNTVFLQMNSLKPEDTAVYYCAAGNRYGVRQLYQIVTRYYWGQGTQVTVSS,high polyreactivity
15,QVQLVESGGGLVQAGGSLRLSCAASGFTFRRYAMGWYRPARGKERELVAAIRQSGGSTYADSVKGRFTISRDNAKNTVYLQMNSLKPEDTAVYYCNAGVRAVNRKYDYWGQGTQVTVSS,high polyreactivity
16,QVQLVESGGGLVQAGGSLRLSCAASGSIFLDNAKGWYRQAPGKERELVSAISSGGNTNYADSVKGRFTISRDNAKNTVSLQMNSLKPEDTAVYYCAADPTKWHYYVPRYYYWGQGTQVTVSS,low polyreactivity
17,QVQLVESGGGLVQAGGSLRLSCAASGSIFKYYTMGWYRQAPGKERELVSGISYRGGSTYYADSVKGRFTISRDNAKNTVYLQMNSLKPEDTAVYYCNAVQLSGGDYWGQGTQVTVSS,high polyreactivity
18,QVQLVESGGGLVQAGGSLRLSCAASGFIFAGYAMGWYRQAPGKERELVAAISSRGGSTYYADSVKGRFTISRDNAKNTVYLQMNSLKPEDTAVYYCNKYYYGFTPDGYKKMDYWGQGTQVTVSS,low polyreactivity
19,QVQLVESGGGLVQAGGSLRLSSAASGSIYYPYAMGWYRQAPGKERELVAAIRNGGSTYYADSVKGRFTISRDNAKNTVYLQMNSLKPEETAVYYCNAVYTGPTYGPHRKENYYWGQGTQVTVSS,high polyreactivity
20,QVQLQESGGGLVQAGGILRLSCAASGPISRRSTMGWYRQAPGKERELVTAITRGTNTNYADSVKGRFTISRDNAKNTEYLQMNSLKPEDTAVYYCAAYGVLKPYRGDAVFHRYWGQGTQVTVSS,low polyreactivity
21,QVQLVESGGGLVQAGGSLRLSCAASGSIFTNYAMGWYRQAPGKERELVAAISVGGGRTYYADSVKGRFTISRDNAKNTVYLQMNSLKPEDTAVYYCAASRRTRSMNYWGQGTQVTVSS,high polyreactivity
22,QVQLVESGGGLVQAGGSLLLSCAASGRTFYVYAMGWYRQAPGKERELVAAITSGGRTYYADSVKGRFTISRDNAKNTVYLQMNRLKPEDTAVYYCNARRTSRSYSFNYWGQGTQVTVSS,high polyreactivity

row,Sequence,polyreactivity (PSR sort gate)
1,QVQLVESGGGLVQAGGSLRLSCASSGSTFNSYAMGWYRQAPGKERELVAAISWSGGSTYYADSVKGRFTISRDNAKNTVYLQMNSLKPEDTAVYYCNADYWWEYAYVVDYWGQGTQVTVSS,low polyreactivity
2,QDQLVESGGGLVQAGGSLRLSCAASGNIIVEKAMGWYRQAPGTERELVAVSTSGTSTYADSVKGRFTISRDNAKNTVYLQMYSLKPEDTAVYYCNKRQVFVSTGEYEFDYWGQGTQVTVSS,low polyreactivity
3,QVQLVESGGGLVQAGGSLRLSCAASGRNFTIYAMGWYRQAPGKERELVATISSNVGSTYYADSVKGRFTISRDNAKNTVYLQMNSLKPEDTAVYYCNVVPYLYGLDGYDYWGQGTQVTVSS,high polyreactivity
4,QVQLVESGGGLVQAGGSLRLSCAASGFIFRWYAMGWYRQAPGKERELVATITGGGSTYYADSVKGRFTISRDNAKNTVYLQMNSLKPEDTAVYYCNARQIWKYSVRDDYWGQGTQVTVSS,high polyreactivity
5,QVQLVESGGGLVQAGGSLRLSCAASGFTFAYYAMGWYRQAPGKERELVASISYNGGITNYADSVKGRFTISRDNAKNTVYLQMNSLKPEDTAVYYCAAGVFFFTFDYWGQGTQVTVSS,low polyreactivity
6,QVQLVESGGGLVQAGGSLRLSCAASGLTFSAYTMGWYRQAPGKERELVAAIDRSGSTYYADSVKGRFTISRDNAKNTVYLQMNSLKPEDTAVYYCAADAVRKDLFDYWGQGTQVTVSS,low polyreactivity
7,QVQLVESGGGLVQAGGSLRLSCAASGITIVNYVMGWYRQAPGKERELVAAISIGGGTYYADSVKGRFTISRDNEKNTVYLQMNSLKPEDTAVYYCNASYGGLSFYIGVYVTGYDYWGQGTQVTVSS,low polyreactivity
8,HVQLVESGGGLVQAGGSLRLSCAASGRTFVVYAMGWDRQAPGKERELVAAITSSGGSTYYADSVKGRFTISRDNAKNTVYLQMNSLKPEDTAVYYCNRVYVRAGVSVAYNYWGQGTQVTVSS,high polyreactivity
9,QVQLVESGGGLVQAGGSLRLSCAASGRTLWYYTMGWYRQAPGKERELVADITRGTSTNYADSVKGRFTISRDNAKNTVYLQMNSLKPEDTAVYHCNRAHGRSRYSRDYDSWGQGTQVTVSS,low polyreactivity
10,QVQLVESGGGLVQAGGSLRLSCAASGITFGYNTMGWYRQAPGKERELVAAISGSGGRTYYADSVKGRFTISRDNAKNTVFLQMNSLKPEDTAVYYCAARWPIWSSLYDYWGQGTQVTVSS,high polyreactivity
11,QVQLEESGGGLVQAGGSLRLICAASGRTFVYYAMGWYRQAPGKERELVAAISTGGSTNYADSVKGRFTISRDNAKNTVYLQMNSLKTEDTAVYYCAAQYYISISKYDYWGQGTQVTVSS,low polyreactivity
12,QVQLVESGGGLVQAGGSLRLSSAASGRTFYFYAMGWYRQAPGKERELVADIRGITGSTYYADSVKGRFTISRDNAKNTVYLQMNSLKPEDTAVYYCNAYPYIARAPYEYWGQGTQVTVSS,high polyreactivity
13,QVQLVESGGGLVQAGGSLRLSCAASGSTFPKYAMGWYRQAPGKERELVAVITSGGSTYYADSVMGRFTISRDNAKNTVYLQMNSLKPEDTAVYYCAARKYRRFDYWGQGTQVTVSS,high polyreactivity
14,QVQLVESGGGLVQAGGSLRLSCAASGRTFWRYAMGWDRQAPGKERELVAGITNSGGNTYYADSVKGRFTISRDNAKNTVYLQMNSLKPEDTAVYYCAARSGRFKYSSWSRGPTYDYWGQGTQVTVSS,low polyreactivity
15,QVQLVESGGGLVQAGGSLRLSCAASGSTFTINAKGWYRQAPGKERELVAAISWSGGTTYYADSVKGRFTISRDNAKNTVYLQMTSLKPEDTAVYYCAARSYYGYDYWGQGTQVTVSS,high polyreactivity
16,QVQLEESGGGLVQAGGSHRLSCAASGPTFRRNVMGWSRQAPGKEREFVAAITWSGGNTYYADSVKGRITISRDNAKYTVFLQMYSLKREDTAVYYCNARSAIWGWGYGSYDYWGLGTQVTVSS,low polyreactivity
17,QVQLVESGGGLVQAGGSLRLSCAASGFTFGWYAMGWYRQAPGKEREFVAAISRSGGSTYYADSVKGRFTISRDNAKNTVYLQMNSLKPEDTAVYYCAAYIIGDTHAEYDYWGQGTQVTVSS,high polyreactivity
18,QVQLVESGGGLVQAGGSLRLSCAASGFTFYRYAMGWYRQAPGKERELVATISASGGSTYYADSVKGRFTISRDNAKNTVYLQMNSVKPEDTAVYYFAVRYKSWYGFNYWGQGTQVTVSS,high polyreactivity
19,QVQLVESGGGLDQAGGSLRLSCAASGFTFTAYDMGWYRQAPGKVRELVAAINWSGSRTYYADSVKGRFTISRDNAKNTVYLQMNSLKPEDTAVYYCNTATSKSSYLHYDYWGQGTQVTVSS,high polyreactivity
20,QVQLVESGGGLVQAGGSLRLSCAASGFTFLINAMGWYRQAPGKERELVAAIRSGGSTNYADSVKGRFTISRDNAKNSVYFQMNSLKPEDTAVYYCAARRYYPYKYRYGYWGQGTQVTVSS,high polyreactivity
21,QVHLVESWAGLVQAGGSLRLSGAASGTNVMGWYRQAPGKERELDAAISGSGGSTYYADSVKGRFTISRDNAKNTVYLQMNSLKPEDTAVYYCAADSIQYTARPYDYWGQGTQVTVSS,low polyreactivity
